Assay results published in paper PMC9425024.
Where “and” joins values, the source holds several entries; their conditions need not be identical. Equal values may be shown once.

What was measured:
[1] = molecular target: wildtype Arabidopsis thaliana (At) ProXp-ala (Arabidopsis thaliana); test: SEC-MALS; Superdex 200 Increase 10/300 GL in 50 mM Hepes pH 6.8, 30 mM KCl, 2 mM DTT, 1 mM MgCl2; 100 μl of 3 mg/ml WT, 6 mg/ml ΔCTD or 1.5 mg/ml CTD injected; self-association
[2] = molecular target: CTD At ProXp-ala (Arabidopsis thaliana); test: as above

stoichiometry N [1] | stoichiometry N [2] | Substance
2 | – | wildtype Arabidopsis thaliana (At) ProXp-ala (enzyme)
– | 2 and 4 | CTD At ProXp-ala (domain or fragment)
